B1: CFA0666 (antibody, V domains shown)
VH: QSVEESGGRLVTPGTPLTLTCTVSGFSLSTYAMGWVRQAPGKGLEWIGTIDTGDNSFYANWAKGRFTISKTSTTVDLKITSPTAEDTATYFCARNDGSVYNLFNLWGPGTLVTVSS
VL: DVVMTQTPASVSAAVGGTVTIKCQASENIYSALSWYQQKPGLRPRLLIYYASTLASGVPSRFKGSRSGTEFTLTISDLECADAATYYCQQYYDINSVDNTFGGGTKVVVE
B2: CFA0538 (antibody, V domains shown)
VH: QSVEESGGRLVTPGTPLTLTCTASGFSLSSYYMNWVRQAPGKGLEWIGMIYGSGATYYASWAKGRFTISKTSSTTVDLKMTSLTTEDTATYFCARQIYSGDNNDNFWGPGTLVTVSS
VL: AYDMTQTPASVEVAVGGTVTINCQASESISNWLAWYQQKPGQRPKLLIYRASTLASGVSSRFKGSGSGTQFTLTISGVECDDAATYYCQQDYSSSNVDNTFGGGTTVVVE
B3: CFA0366 (antibody, V domains shown)
VH: QSLEESGGDLVKPGASLSLTCTAAGLDFSSSYYMCWVRQAPGKGLEWIACIYAGSSGIIYYANWAKGRFTISRPSSTTVTLQMTSLTAADTATYFCATYPTYGDGGHAFNLWGPGTLVTVSS
VL: AQVLTQTPSSVSAAVGGTVTINCQSSQSVYSSDYLSWYQQKPGQPPKLLIYEASKLASGVPPRFSGSGSGTQFTLTISGVQCDDAATYYCQGTYYSSGWYFAFGGGTEVVVK
B4: 305LO5 (antibody, V domains shown)
VH: QVQLVESGGGLVQPGGSLRLSCAASGFTSHSSYYVAWVRQAPGKGLEWVGAIYTGSGATYKASWAKGRFTISKDTSKNQVVLTMTNMDPVDTATYYCASDGGYDYPTHAMHYWGQGTLVTVSS
VL: DVVMTQSPSSLSASVGDRVTITCQASQNIGSSLAWYQQKPGQAPRLLIYGASKTHSGVPSRFSGSGSGTDFTLTISSLQPEDVATYYCQSTKVGSSYGNHFGGGTKVEIK
B5: CFA0501 (antibody, V domains shown)
VH: QSVEESGGRLVTPGTPLTLTCTASGFSLSSYYMNWVRQAPGKGLEWIGMIYGSGATYYASWAKGRFTISKTSSTTVDLKMTSLTTEDTATYFCARQIYSGDNNDNFWGPGTLVTVSS
VL: AYDMTQTPASVEVAVGGTVTINCQASESISNWLAWYQQKPGQRPKLLIYRASTLASGVSSRFKGSGSGTQFTLTISGVECDDAATYYCQQDYSSSNVDNTFGGGTKVVVE
B6: CFA0330 (antibody, V domains shown)
VH: QSLEESGGDLVEPGASLTLTCTASGFSWNSGYDMCWVRQAPGKGLEWIACIYTGSSANTAYANWAKGRFTISKTSSTTVTLQMTGLTAADTATYFCARHDDYFFDLWGPGTLVTVSS
VL: DVVMTQTPASVSESVGGTVTINCQASQSIGNNLAWYQQKPGQPPKLLIYDASNLASGVPSRFKGSRSGTEPTLTNTLTISGVQCADVATYYCQSGWYGNSYVAAFGGGTEVVVK
B7: 305LO20-SG115 (antibody, V domains shown)
VH: QVQLVESGGGLVQPGGSLRLSCAASGFTVHSSYYMAWVRQAPGKGLEWVGAIFTGSGAEYKAEWAKGRVTISKDTSKNQVVLTMTNMDPVDTATYYCASDAGYDYPTHAMHYWGQGTLVTVSS
VL: DIQMTQSPSSLSASVGDRVTITCRASQGISSSLAWYQQKPGQAPRLLIYGASETESGVPSRFSGSGSGTDFTLTISSLQPEDFATYYCQNTKVGSSYGNTFGGGTKVEIK
B8: CFA0599 (antibody, V domains shown)
VH: QSVEESGGRLVTPGTPLTLTCTVSGLSLSDNTMTWVRQAPGKGLEWIGIISFGGDAYYASWAKGRFPISKTSTTVDLRITSPTTEDTATYFCARVGAGNIFWYFDLWGPGTLVTVSS
VL: AYDMTQTPASVEVSVGGTVTIKCQASESIYSALAWYQQKPGQPPKLLIYSASTLASGVPSRFKGSGSGTEYTLTISDLECADAATYYCQQYYSSTNVHNSFGGGTTVVVE
B9: CFA0672 (antibody, V domains shown)
VH: QSVEESGGRLVTPGTPLTLTCTASGFSLSGNAINWVRQAPGKGLEWIGCIYTGSDTTYYATWAKGRFTISKTSTTVDLKIASPTTEDTATYFCARGSGLWGPGTLVTVSS
VL: DVVMTQTPASVSAPVGGTVTIKCQASQNIYSLLAWYQQKPGQPPKLLIYHTSDLASGVPSRFRGSGSGTEFTLTISDLECADAATYYCQCTAYGSSDVGGTFGGGTTVVVE
B10: CFA0675 (antibody, V domains shown)
VH: QSVEESGGRLVTPGTPLTLTCTVSGFSLSTYAMGWVRQAPGKGLEWIGTIDTGDNSFYANWAKGRFTISRTSTTVDLKITSPTAEDTATYFCARNDGSVYNLFNLWGPGTLVTVSS
VL: DVVMTQTPASVSAAVGGTVTIKCQASENIYSALSWYQQKPGLRPRLLIYYASTLASGVPSRFKGSRSGTEFTLTISDLECADAASYYCQQYYDINSVDNTFGGGTKVVVE
B11: CFA0307 (antibody, V domains shown)
VH: QSLEESGGGLVKPGASLTLTCKASGIDFSNFYYICWVRQAPGKGLDLIACIYTVSGYTYYASWAKGRLTISKTSSTTVTLQMTSLTAADTATYFCARDLHAGITNLWGPGTLVTVSS
VL: AIEMTQTPFSVSAAVGGTVTIKCQASQNIYSNLAWYQQKPGQRPKLLIYGASNLESGVPSRFKGSGSGTEYTLTISDLECADAATYYCLQGYSYSNVDDAFGGGTEVVVK
B12: 305LO23-SG115 (antibody, V domains shown)
VH: QVQLVESGGGLVQPGGSLRLSCAASGFTVHSSYYMAWVRQAPGKGLEWVSGIFTGSGATYKAEWAKGRVTISKDTSKNQVVLTMTNMDPVDTATYYCASDAGYDYPTHAMHYWGQGTLVTVSS
VL: DIQMTQSPSSLSASVGDRVTITCRASQGISSSLAWYQQKPGQAPRLLIYGASTTQSGVPSRFSGSGSGTDFTLTISSLQPEDFATYYCQNTKVGSSYGNTFGGGTKVEIK
B13: 305LO16-SG422 (antibody, V domains shown)
VH: QVQLVESGGGLVQPGRSLRLSCAASGFTVHSSYYMAWVRQAPGKGLEWVGAIFTGSGAEYKAEWVKGRFTISRDNSKNTLYLQMNSLRAEDTAVYYCASDAGYDYPTHAMHYWGRGTLVTVSS
VL: DIQMTQSPSSLSASVGDRVTITCRASQGISSSLAWYQQKPGKAPKLLIYGASETESGVPSRFSGSGSGTDFTLTISSLQPEDFATYYCQNTKVGSSYGNTFGGGTKVEIK
B14: 305LO20-SG422 (antibody, V domains shown)
VH: QVQLVESGGGLVQPGGSLRLSCAASGFTVHSSYYMAWVRQAPGKGLEWVGAIFTGSGAEYKAEWAKGRVTISKDTSKNQVVLTMTNMDPVDTATYYCASDAGYDYPTHAMHYWGQGTLVTVSS
VL: DIQMTQSPSSLSASVGDRVTITCRASQGISSSLAWYQQKPGQAPRLLIYGASETESGVPSRFSGSGSGTDFTLTISSLQPEDFATYYCQNTKVGSSYGNTFGGGTKVEIK
B15: CFA0341 (antibody, V domains shown)
VH: QSVEESGGRLVTPGTPLTLTCTVSGIDLSSYTMGWVRQAPGKGLECIGYIHSFGSTYYASWAKGRFTISKTSTTVDLEITSPTTEDTATYFCARDVGGSSGWDLWGQGTLVTVSS
VL: DVVMTQTPSSVSAAVGGTVTIKCQASENIYSNLAWYQQKPGQPPKRLIYDASDLASGVPSRFSGSGYGTQFTLTISGVQCEDAATYYCQANYDSTSSSFGNVFGGGTEVVVK

Tests used:
human C5 [1] = target: human C5 (human); assay: SPR, pH 5.8, 37C
human C5 [2] = target: human C5 (human); assay: SPR, pH 7.4, 37C
human C5 [3] = target: human C5 (human); assay: SPR, pH 7.4, 37C; remark: listed apart in the source
human C5 [4] = target: human C5 (human); assay: SPR, pH 5.8, 37C; remark: listed apart in the source

| Binder | Kd (human C5 [1]) | Kd (human C5 [2]) | Kd (human C5 [3]) | Kd (human C5 [4]) |
| --- | --- | --- | --- | --- |
| B1 | 33.3 nM | 1.71 nM |  |  |
| B2 | 246 nM | 3.91 nM |  |  |
| B3 | 75.2 nM | 8.99 nM |  |  |
| B4 | 14 nM | 0.471 nM |  |  |
| B5 | 174 nM | 3.56 nM |  |  |
| B6 | 0.184 nM | 0.122 nM |  |  |
| B7 |  |  | 0.324 nM | 58.1 nM |
| B8 | 82.1 nM | 5.93 nM |  |  |
| B9 | 138 nM | 0.351 nM |  |  |
| B10 | 17 nM | 1.08 nM |  |  |
| B11 | 164 nM | 8.13 nM |  |  |
| B12 |  |  | 0.277 nM | 64.1 nM |
| B13 |  |  | 0.321 nM | 79.5 nM |
| B14 |  |  | 0.349 nM | 59.9 nM |
| B15 | 0.0595 nM | 0.155 nM |  |  |
